Experimental data as given in publication PMC7378079 (Scientific Reports, 2020).
Substitutions are numbered along the chain they refer to. Names may count otherwise. Like-named read-outs stand apart in the source and are kept apart here.

Tests used:
TNKS2 (tankyrase 2) ARC4 [1] = molecular target: T1, TNKS2 (tankyrase 2) ARC4 (Homo sapiens, UniProt Q9H2K2); experiment: FRET competition with YFP-TBM peptide (Ki calculated from IC50); DSF Tm shift […] °C at […]; assay type: binding
T1 construct: ARC4 domain (ankyrin repeat cluster 4); CFP-ARC4 fusion in FRET, unlabelled ARC4 in DSF
T1 sequence (Q9H2K2 484-649 limits assumed): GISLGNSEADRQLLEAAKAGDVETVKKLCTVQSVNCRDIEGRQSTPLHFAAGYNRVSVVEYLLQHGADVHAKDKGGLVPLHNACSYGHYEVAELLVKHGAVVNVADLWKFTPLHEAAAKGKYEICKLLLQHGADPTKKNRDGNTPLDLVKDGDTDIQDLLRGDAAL

TNKS2 (tankyrase 2) ARC4 [2] = molecular target: T1, TNKS2 (tankyrase 2) ARC4; experiment: as above; assay type: binding; remark: listed apart in the source
unlabelled TNKS2 ARC4 = molecular target: T2, unlabelled TNKS2 ARC4 (human, His6-MBP removed by TEV; the residual N-terminal SM is omitted; limits from the TNKS2 ARC4 crystal construct convention); experiment: differential scanning fluorimetry; 5 µM unlabelled TNKS2 ARC4, 5x SYPRO Orange, 100 µM TBM peptide; assay buffer pH 7.0, 1% DMSO; 20-95 °C at 1 °C/min; 4 replicates; details: both partners purified
T2 chain: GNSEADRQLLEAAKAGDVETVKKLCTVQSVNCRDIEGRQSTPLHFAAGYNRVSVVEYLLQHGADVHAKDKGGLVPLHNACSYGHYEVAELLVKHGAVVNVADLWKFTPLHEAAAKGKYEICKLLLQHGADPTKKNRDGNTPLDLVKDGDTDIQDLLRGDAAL

TNKS1 SAM(E1050K)-CFP = molecular target: T3, TNKS1 SAM(E1050K)-CFP (human, UniProt O95271 1030-1089, E1050K); experiment: FRET or BRET; titration for Kd after Song et al.: CFP-fusion kept constant (50 nM to 1.1 µM), YFP-fusion 0-4,000 nM; FRET emission on excitation at 430 nm; assay buffer 10 mM Bis-Tris-Propane pH 7.0, 3% PEG20,000, 0.01% Triton-X100, 0.5 mM TCEP; 384-well plates, 4 replicates; the paper calls the constants an estimation; details: both partners purified
T3 construct: human tankyrase 1 (TNKS1), sterile alpha-motif (SAM) domain; also called ML surface mutant of the TNKS1 SAM domain; source: E. coli BL21(DE3), purified (IMAC); not shown: mCerulean (CFP), C-terminal, kept
T3 sequence (looked up): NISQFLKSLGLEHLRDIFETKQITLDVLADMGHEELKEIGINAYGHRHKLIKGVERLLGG

CFP-ARC2-3 (TNKS1) [3] = molecular target: T4, CFP-ARC2-3 (TNKS1) (human, mCerulean fusion omitted; conventional ARC limits); experiment: as above; details: both partners purified
T4 chain: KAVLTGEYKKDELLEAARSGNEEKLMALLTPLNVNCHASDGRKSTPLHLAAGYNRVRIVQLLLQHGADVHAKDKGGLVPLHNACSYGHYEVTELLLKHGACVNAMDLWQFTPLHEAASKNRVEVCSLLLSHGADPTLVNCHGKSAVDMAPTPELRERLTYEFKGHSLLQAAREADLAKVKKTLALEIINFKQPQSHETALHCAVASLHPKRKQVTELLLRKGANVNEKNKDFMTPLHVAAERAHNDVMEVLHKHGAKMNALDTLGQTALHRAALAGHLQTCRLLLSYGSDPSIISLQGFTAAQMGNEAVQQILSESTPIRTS

CFP-ARC1 (TNKS1) = molecular target: T5, CFP-ARC1 (TNKS1) (human, N-terminal mCerulean fusion omitted; conventional ARC limits); experiment: as above; details: both partners purified
T5 chain: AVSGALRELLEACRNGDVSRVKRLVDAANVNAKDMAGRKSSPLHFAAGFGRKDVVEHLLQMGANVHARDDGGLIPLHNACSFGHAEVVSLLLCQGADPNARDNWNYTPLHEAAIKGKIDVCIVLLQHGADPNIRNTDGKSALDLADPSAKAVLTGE

CFP-ARC2 (TNKS1) = molecular target: T6, CFP-ARC2 (TNKS1) (human, N-terminal mCerulean fusion omitted; conventional ARC limits); experiment: as above; details: both partners purified
T6 chain: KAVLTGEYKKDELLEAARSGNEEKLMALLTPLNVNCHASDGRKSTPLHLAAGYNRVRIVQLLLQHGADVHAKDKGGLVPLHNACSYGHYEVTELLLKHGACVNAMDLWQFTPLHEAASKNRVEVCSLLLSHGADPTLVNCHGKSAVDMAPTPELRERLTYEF

CFP-ARC2-3 (TNKS1) [4] = molecular target: T4, CFP-ARC2-3 (TNKS1); experiment: as above; details: both partners purified
CFP-ARC4 (TNKS1) = molecular target: T7, CFP-ARC4 (TNKS1) (human, N-terminal mCerulean fusion omitted; limits by homology to TNKS2 ARC4 488-649); experiment: as above; details: both partners purified
T7 chain: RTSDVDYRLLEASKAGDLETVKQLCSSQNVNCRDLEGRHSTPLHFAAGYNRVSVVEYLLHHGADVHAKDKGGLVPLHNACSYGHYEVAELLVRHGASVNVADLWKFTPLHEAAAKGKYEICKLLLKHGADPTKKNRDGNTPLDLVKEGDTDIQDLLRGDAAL

CFP-ARC5 (TNKS1) = molecular target: T8, CFP-ARC5 (TNKS1) (human, N-terminal mCerulean fusion omitted; conventional ARC limits); experiment: as above; details: both partners purified
T8 chain: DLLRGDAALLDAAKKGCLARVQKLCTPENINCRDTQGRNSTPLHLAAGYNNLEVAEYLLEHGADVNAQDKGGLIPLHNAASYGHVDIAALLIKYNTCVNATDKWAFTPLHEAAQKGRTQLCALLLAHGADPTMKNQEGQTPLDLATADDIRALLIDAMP

CFP-ARC1 (TNKS2) = molecular target: T9, CFP-ARC1 (TNKS2) (human, N-terminal mCerulean fusion omitted; conventional ARC limits); experiment: as above; details: both partners purified
T9 chain: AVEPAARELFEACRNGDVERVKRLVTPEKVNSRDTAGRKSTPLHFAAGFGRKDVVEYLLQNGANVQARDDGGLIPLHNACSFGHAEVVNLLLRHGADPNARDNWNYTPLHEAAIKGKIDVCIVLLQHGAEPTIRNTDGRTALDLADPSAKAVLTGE

CFP-ARC4 (TNKS2) = molecular target: T10, CFP-ARC4 (TNKS2) (human, N-terminal mCerulean fusion omitted; limits from the TNKS2 ARC4 crystal construct convention (e.g. 3TWR), as Table S1 is not shown); experiment: as above; details: both partners purified
T10 chain: T2 chain

CFP-ARC5 (TNKS2) = molecular target: T11, CFP-ARC5 (TNKS2) (human, N-terminal mCerulean fusion omitted; conventional ARC limits); experiment: as above; details: both partners purified
T11 chain: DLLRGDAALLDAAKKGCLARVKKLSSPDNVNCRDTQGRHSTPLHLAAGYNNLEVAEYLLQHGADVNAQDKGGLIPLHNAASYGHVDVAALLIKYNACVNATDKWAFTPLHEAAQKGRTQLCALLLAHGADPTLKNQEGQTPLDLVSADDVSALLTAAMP

O=C(O)c1cc(O)c2c(Cl)cc(Cl)cc2n1 [DCKA, 5,7-dichlorokynurenic acid]
Ki (TNKS2 (tankyrase 2) ARC4 [1]): 62000 nM

O=c1[nH]c2cc(C(F)(F)F)c(N3CCOCC3)cc2n(CP(=O)(O)O)c1=O [Fanapanel]
Ki (TNKS2 (tankyrase 2) ARC4 [2]): 20000 nM

B1: TBM-peptide (REAGDGEE) (peptide)
peptide: REAGDGEE
notes: also called 8-mer TBM peptide; source: synthetic peptide, bought: JPT Peptide Technologies
Tm shift at 100 µM (unlabelled TNKS2 ARC4): 2.94 ± 0.16 °C

B2: TNKS1 SAM(Y1073A)-YFP (domain or fragment, human, UniProt O95271 1030-1089, looked up)
chain: T3 sequence (looked up) with K21E, Y44A
notes: human tankyrase 1 (TNKS1), sterile alpha-motif (SAM) domain; also called EH surface mutant of the TNKS1 SAM domain; source: E. coli BL21(DE3), purified (IMAC); not shown: mCitrine (YFP), C-terminal, kept
Kd (TNKS1 SAM(E1050K)-CFP): 560 nM

B3: YFP-TBM (peptide)
chain: REAGDGEE
notes: also called TBM (REAGDGEE); YFP-fused TBM; source: E. coli BL21(DE3), purified (IMAC); not shown: mCitrine (YFP), N-terminal, kept
Kd (CFP-ARC2-3 (TNKS1) [3]): 13 nM | Kd (CFP-ARC1 (TNKS1)): 2600 nM | Kd (CFP-ARC2 (TNKS1)): 8.2 nM | Kd (CFP-ARC2-3 (TNKS1) [4]): 12 nM | Kd (CFP-ARC4 (TNKS1)): 45 nM | Kd (CFP-ARC5 (TNKS1)): 27 nM | Kd (CFP-ARC1 (TNKS2)): 970 nM | Kd (CFP-ARC4 (TNKS2)): 35 nM | Kd (CFP-ARC5 (TNKS2)): 33 nM
